Laboratory results from patent EP4335450A1 (Cellemedy Co., Ltd, dated 2024).

Target: T1, human transferrin receptor-Fc tag standard (human, UniProt P02786 89-760, limits assumed)
T1 construct: Coated on the ELISA plate at 2 µg/ml; also called hTfR; not shown: Fc tag
Assay: ELISA, hTfR-Fc coated on plate; calculated from an expected saturation point, curve not saturated at 10000 nM

T1 sequence (P02786 89-760 limits assumed): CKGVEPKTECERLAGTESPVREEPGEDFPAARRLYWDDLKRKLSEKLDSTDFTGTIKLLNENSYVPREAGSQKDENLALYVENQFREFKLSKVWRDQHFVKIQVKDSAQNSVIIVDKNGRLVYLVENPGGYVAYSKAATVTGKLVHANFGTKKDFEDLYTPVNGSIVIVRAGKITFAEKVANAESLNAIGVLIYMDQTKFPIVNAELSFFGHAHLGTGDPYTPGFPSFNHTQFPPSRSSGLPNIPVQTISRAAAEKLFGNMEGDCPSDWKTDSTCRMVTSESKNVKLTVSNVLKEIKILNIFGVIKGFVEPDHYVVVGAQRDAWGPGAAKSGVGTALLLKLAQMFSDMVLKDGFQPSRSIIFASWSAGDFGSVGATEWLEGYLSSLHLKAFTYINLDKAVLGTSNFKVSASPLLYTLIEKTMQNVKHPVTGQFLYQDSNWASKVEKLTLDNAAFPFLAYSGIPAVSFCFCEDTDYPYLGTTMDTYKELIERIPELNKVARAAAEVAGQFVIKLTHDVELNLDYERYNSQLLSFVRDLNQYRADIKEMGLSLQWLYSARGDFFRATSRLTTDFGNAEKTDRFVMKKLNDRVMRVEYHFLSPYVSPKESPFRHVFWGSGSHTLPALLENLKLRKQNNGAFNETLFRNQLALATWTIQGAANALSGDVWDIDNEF

Kd: ~4.4 µM
B1: huHF_Mutant2-dual (other)
chain: MTTASTSQVRQNYHAASEAAINAQINLELYASYVYLSMSYYFDRDDVALKNFAKYFLHQSHEEREHAEKLMKLQNQRGGRIALADIQKPDCDDGGSYGSLYAFDIWESGLNAMECALHLEKNVNQSLLALHALATAKNDPHLCDFIETHYLNEQVKAIKELGDHVTNLRKMGAPESGLAEYLFDKHTLGDSDNESMPSFITLASLSTWEGYFDF
notes: Ferritin particle of 24 monomers
